In patent US6083914:

How the values were obtained:
[1] = biological target: platelets (human, fresh washed); test: competition: soluble peptide against divalent cation-independent adhesion of platelets to coated 45 kDa
[2] = biological target: platelets (human, fresh washed); test: competition: 300 uM soluble peptide against platelet adhesion to coated FN in the presence of Ca+2

| ED50 [1] | fold reduction of apparent affinity against FN312-326 [1] | percent reduction of platelet adhesion to FN [2] | Binder |
| --- | --- | --- | --- |
| 712 µM | 10 fold |  | TAVTQTYGGNSN [FN312-323] |
| 68 µM |  | 50% | TAVTQTYGGNSNGEP [FN312-326] |
| > 2000 µM |  |  | TAVTQTY [FN312-318] |
| > 2000 µM |  |  | QTYGGNSNGEPSVLPFTY [FN316-333] |
